# Laboratory results as given in the supplement of paper PMC12042874.
# ± gives the uncertainty stated by the source.
# Experiment: amyloid nucleation score (Sup35N fusion, yeast selection) (log enrichment); library NNK3; higher = more nucleation; inactive = no reads after selection
# In short: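 Plasmid inserts were Illumina-sequenced at input and output from psi-negative yeast expressing Sup35N fused to peptides of 20 random codons. The yeast were induced with 100 μM copper sulfate for 24 hours and grown 7 days at 30°C on medium lacking adenine and uracil, and sequences with under 100 input reads were excluded. Nucleation score is the DiMSum log enrichment of output over input reads, centred on the mode score of non-aggregating sequences.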
row,Substance,amyloid nucleation score
1,SRRVISEHSMEGNTID,inactive
2,ERKCLLCNYHMY,inactive
3,LLYYSSINYFLLLGFCSEEL,1.51 ± 0.065
4,DIQVFLTSSLQFIAEISVGG,inactive
5,PLDSECEKDGHDTPYDYVVL,inactive
6,AYRRKLISGFIWERFLFRCG,inactive
7,FSGSTSLCLMMRYTSTVR,0.359 ± 0.25
8,YLQLTRQTSYVIIAL,inactive
9,GGCDL,inactive
10,GTNWCGIFLNFLLFVML,inactive
11,AGAVYVTAPLIAREDVVACY,inactive
12,NVVCSTARIEKPMGVLCFMF,1.92 ± 0.092
13,KGYGCFTGMYSENARMMVIS,0.136 ± 0.66
14,TSKRDYDRCRFL,inactive
15,VTSTQVMNMLD,inactive
16,ICEQKEFPYVEQWLD,inactive
17,TKSPSGTHFLLVRFWSRCGR,inactive
18,ESFHMFFFQLLSYCFSNCGW,inactive
19,RAEMMSYTLVQIIGYISIVE,inactive
20,KCGRSR,inactive
21,NESHILPVVVMDCLRTFPTE,inactive
22,SRVHPPLWIKCTVGMVPQTC,inactive
23,EYRLVKFHSPLFQRIKSIVA,inactive

row,Substance,amyloid nucleation score
1,MRNMCVLAIILILCFGTRFK,1.21 ± 0.08
2,WFEEATRGRNETS,inactive
3,LKYSHEHGFFSYYACWCQQL,inactive
4,KINVD,inactive
5,YAGFTQNDNVKLYTGNPFHM,inactive
6,YTYECRCH,inactive
7,LFYSRGHLSGLGLGVMAPFI,inactive
8,RCDVRFSWLIPSGLE,1.56 ± 0.086
9,LHSLKHNCVFSAIVGHCFQC,2.11 ± 0.098
10,RDGSQGEFWVLALARLGGTS,0.311 ± 0.48
11,SREWSKSVVCTYLTMRGRLS,inactive
12,TLNIDGFIVFRTEVKGKLSY,inactive
13,RKSSSVRFFEHCVVSDVWLV,inactive
14,GWELTFRSEF,inactive
15,NLLSDSVDMYINAGVDILLA,inactive
16,IVYRVSVFSWLVMDPDDK,inactive
17,VDMRSDDLIMQFWQLLSDDV,inactive
18,MIDIKCNERAFSEYRFWCRW,0.141 ± 0.42
19,LHLMWMPVTCGEVALCDGQS,inactive
20,SHSLSVGGFYSPDFRNYTCT,1.98 ± 0.082
21,CWADSDSVSKKSRIA,inactive
22,RDFATTNGRDNIELHSQGNY,inactive
23,FLHQGT,inactive

row,Substance,amyloid nucleation score
1,WKGLL,inactive
2,MLFANRHNLESGWSL,inactive
3,ILVFILYHCCIIHLGLNLAK,inactive
4,CSRLPVHRFIP,inactive
5,GVLTTALVGTCWPSTCFYGL,inactive
6,SKSIMTWWEVLDGGSNLKSV,inactive
7,CFLMCVAVVCRIRNYYWCTI,inactive
8,RNNDDSVLMDMLCMKCRTWL,inactive
9,IGSAVIWVFFCNGSGVGDGT,2.08 ± 0.09
10,LFSLCWRCTLLKLYCPNWCY,inactive
11,VFEHVGWNPHVRYTVNR,inactive
12,YLLCGYRGATFRKHEVWGEG,-0.059 ± 0.78
13,AWMCIHLYICCMILCGRRGW,inactive
14,VNIWLPKTPLQLKLNLPSSM,-0.829 ± 1.1
15,VGTFWGFTIPSWYSVVVEVC,inactive
16,TISDFISEEIRDLQGPVVCI,inactive
17,SSFNFTSIVLHIANLLHFFL,inactive
18,GQNPSLRLVKESGF,inactive
19,GVYVWFAALNNPTVEGFLNS,inactive
20,PAQSQAYVLKAGGPRLDGRV,inactive
21,ITGPTSVYE,inactive
22,WFDWVMVTYEGLSTVF,inactive
23,IVMVIAAGWFN,0.633 ± 0.2

row,Substance,amyloid nucleation score
1,GICHSSRCWGTSENGNWLRI,inactive
2,RLGFDITKITWCGIYFAGWV,inactive
3,SWCSPNGPQGLEVCSMRPFR,inactive
4,SQVVSRSLVRLEQRNAQKSV,inactive
5,AYNLSLNYDGHSSYWYFHTT,-0.134 ± 0.38
6,TVLLLGRWYN,1.24 ± 0.14
7,LLKHMSLFVLRSSNR,inactive
8,GRLSTAICFCGTMPSRWGFS,inactive
9,LDLFSRNSETRAKSDRVWWT,inactive
10,ELFMPDSIRT,inactive
11,RLQPFVHFVYCWESIVVCMW,1.56 ± 0.068
12,RHGFALRLVHSSL,inactive
13,YAFISDYQYGILFYIKWYFG,inactive
14,HSELW,inactive
15,CNYNTTM,inactive
16,SHVQWPDAFFYRTSFGQLLS,inactive
17,SMQRNSQFLLAQYTDPGGN,inactive
18,GILNT,inactive
19,LSSFNDDMNGVTFYPSISLD,inactive
20,EYKAPREFPSTNCIHFNLMT,inactive
21,FVQSGLFFMCDGSCGLLRVF,inactive
22,VLGILYSTE,inactive
23,KTLVRNMDNKPCRFSLTSNF,inactive

row,Substance,amyloid nucleation score
1,MAEPTL,inactive
2,IQTSNTHVVLVFFGRILRIC,inactive
3,SYKGLCS,inactive
4,VNHVIQNLVSNRSTWGICCT,inactive
5,LPRTYRKALVPNVVVFSYLT,inactive
6,ARLEMVFLPSPIFVNRPGNA,inactive
7,SHYRIMT,inactive
8,YLLDKYEVAFIPSHLVLHSP,inactive
9,DDCQFSDNRRFKSVPSYSQR,inactive
10,RSVATLYGLRSCFCLVCSKL,1.41 ± 0.12
11,GSCWLDVCQDCKSFSILS,inactive
12,ILFKLVKWSAMSFLRCRLFS,-0.797 ± 1.4
13,HVKDVMQRNFRVMGSSSR,inactive
14,RVHLGGMYRWVCEVNV,inactive
15,WMYRKTSNRICCLPRESVNP,inactive
16,CVMLVAVQGR,inactive
17,IWDGSADKFVDPHRACRLWR,inactive
18,FMSSVM,inactive
19,CYGKLDGMTNDEEGTPVFAN,inactive
20,HARFNVRNN,inactive
21,WLFAIFGDGAVFGSYGGWGV,inactive
22,YDRAKSQRIRAQPESTSSVL,0.593 ± 0.19
23,AQFGQTWFANFTSVFYCWSE,2.06 ± 0.064

row,Substance,amyloid nucleation score
1,YLTSFRFYVFTFR,inactive
2,TLCNFKCVYTGSLKIFHRYM,1.91 ± 0.094
3,KGVGHSTLTIIFLLSALRFS,1.02 ± 0.14
4,FGQLGVVNGFTELWQRLCSW,inactive
5,FFLRSGCTIWTNSK,inactive
6,LEVWSRRYWCHRLFNSIAMM,inactive
7,MISICCGIPCLFIFWFRASA,inactive
8,YTPRFMISSWVLRDFIHGVS,inactive
9,LTKYRGPQDVRNAFSCSNIM,inactive
10,VEGATWHTWSCVNHVVVKGF,inactive
11,YSFMKP,inactive
12,GCGSYSDQGRCSTSVSVC,inactive
13,PYSISRLTSYDPFGHVPGTR,inactive
14,GSLYFSCINPM,inactive
15,ICSVVIEGVFLRRLWDSRVS,inactive
16,SVRFDDAMIDGITSAYMIKY,inactive
17,LHTSTTPKTMKRRSQLSNQK,inactive
18,PFGPHYNPTM,inactive
19,FTMNQGSDVEVFLSSMF,inactive
20,PGYGS,inactive
21,LHLGMRLV,inactive
22,LRKRELCGIPSINAAPGLLG,inactive
23,GHISGTESCNI,inactive

row,Substance,amyloid nucleation score
1,SSDYTLVEILSVLFCPVGCS,inactive
2,AEWFAKLLASTMGLIFERRW,inactive
3,RYFSW,inactive
4,KVNTLRVEDIWTSQAFVCMV,inactive
5,QNCVTDMSKNLGIVREFSCS,inactive
6,AHWSEYDAKFTKRLV,inactive
7,RLSLFRGKCRVYYYTGSIQV,inactive
8,TDSLFGVIDHFYENRFW,-0.845 ± 1.4
9,VPDRCLD,inactive
10,VFGRWCFLETCMMHFTFSRY,0.865 ± 0.22
11,MNCWYFLLGACWITIKHLFY,inactive
12,GWLGSVGAKPADRVGKTGGI,0.504 ± 0.24
13,FTYVNSHECWLVKDMVAYFL,3 ± 0.073
14,SHVLWCNMVNEFVHTLSRCG,1.34 ± 0.082
15,MTSFVWSCWRHYYRSRIVVV,inactive
16,WSRSNGVFVGGRNCFLAQDF,inactive
17,LRRYVARNRRSYFTESLPRA,-0.123 ± 1.4
18,FYDLFN,inactive
19,VVHYSLVVPSDGW,inactive
20,GFVFQVYPQFVWVPPTTSRQ,1.2 ± 0.18
